Results: patent publication US20170224836A1 (Novartis, published 2017)

T1: human CDH6 on cells (human, UniProt P55285 54-790)
T1 sequence: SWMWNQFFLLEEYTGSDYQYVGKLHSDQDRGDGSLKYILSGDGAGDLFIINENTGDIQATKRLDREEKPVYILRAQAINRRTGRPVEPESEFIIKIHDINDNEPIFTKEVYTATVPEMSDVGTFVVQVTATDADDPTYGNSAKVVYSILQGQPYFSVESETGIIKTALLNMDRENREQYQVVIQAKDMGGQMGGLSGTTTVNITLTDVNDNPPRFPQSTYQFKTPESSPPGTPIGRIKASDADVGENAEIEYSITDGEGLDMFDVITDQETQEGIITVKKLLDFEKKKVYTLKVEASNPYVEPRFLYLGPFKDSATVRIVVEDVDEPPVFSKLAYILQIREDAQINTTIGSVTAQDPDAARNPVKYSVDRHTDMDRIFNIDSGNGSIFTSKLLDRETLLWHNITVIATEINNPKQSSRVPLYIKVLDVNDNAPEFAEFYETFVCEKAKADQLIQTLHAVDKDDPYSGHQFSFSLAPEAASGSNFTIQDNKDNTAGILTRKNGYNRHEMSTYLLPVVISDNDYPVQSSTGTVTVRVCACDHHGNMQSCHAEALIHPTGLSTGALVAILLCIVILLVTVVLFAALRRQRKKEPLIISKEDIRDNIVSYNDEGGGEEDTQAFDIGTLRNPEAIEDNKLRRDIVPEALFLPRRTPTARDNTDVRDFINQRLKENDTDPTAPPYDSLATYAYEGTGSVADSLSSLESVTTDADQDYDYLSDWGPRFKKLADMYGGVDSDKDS


target: T1, human CDH6 on cells; test: cell-based or functional assay

Binder	percent inhibition at 1.22 nM ADC, JHOS4 cells	percent inhibition at 1.22 nM ADC, KNS42 cells	percent inhibition at 1.22 nM ADC, NCIH661 cells	percent inhibition at 1.22 nM ADC, OVCAR3 cells	percent inhibition at 1.22 nM ADC, SNU8 cells
NOV0689-SMCC-DM1 (antibody, human IgG1, lambda, V domains shown, SMCC-DM1 on primary amines, sites not stated) VH: QVQLLESGGGLVQPGGSLRLSCAASGFTFSSFAMNWVRQAPGKGLEWVSVISSSGSNTNYADSVKGRFTISRDNSKNTLYLQMNSLRAEDTAVYYCARPSYFQAMDYWGQGTLVTVSS VL: DIVLTQPPSVSGAPGQRVTISCSGSSSNIGSNFVSWYQQLPGTAPKLLIYDNSNRPSGVPDRFSGSKSGTSASLAITGLQAEDEADYYCSSYDSFDHSWVFGGGTKLTVLG	3.63%	-3.11%	-0.53%	7.21%	10.3%
NOV0670-SMCC-DM1 (antibody, human IgG1, lambda, V domains shown, SMCC-DM1 on primary amines, sites not stated) VH: QVQLVQSGAEVKKPGSSVKVSCKASGGTFSSYAISWVRQAPGQGLEWMGGIIPIFGTANYAQKFQGRVTITADESTSTAYMELSSLRSEDTAVYYCARKFPGRGPFAYWGQGTLVTVSS VL: DIVLTQPPSVSGAPGQRVTISCSGSSSNIGSQYVYWYQQLPGTAPKLLIYYNSERPSGMPDRFSGSKSGTSASLAITGLQAEDEADYYCQTWDASSQSFVFGGGTKLTVLG	-27.9%	-18.6%	5.14%	-30%	-15.6%
NOV0682-SMCC-DM1 (antibody, human IgG1, kappa, V domains shown, SMCC-DM1 on primary amines, sites not stated) VH: QVQLVESGGGLVKPGGSLRLSCAASGFTFSSYAISWVRQAPGKGLEWVGFIKSNADGYTTNYAAPVKGRFTISRDDSKNTLYLQMNSLKTEDTAVYYCARIRYFRNWDYWGQGTLVTVSS VL: DIQMTQSPSSLSASVGDRVTITCRASQTINSYLNWYQQKPGKAPKLLIYRASNLQSGVPSRFSGSGSGTDFTLTISSLQPEDFATYYCQQGDSSWTFGQGTKVEIKR	33.9%	23.8%	16.4%	61.8%	10.8%
NOV0685-SMCC-DM1 (antibody, human IgG1, lambda, V domains shown, SMCC-DM1 on primary amines, sites not stated) VH: QVQLQQSGPGLVKPSQTLSLTCAISGDSVSGNSAAWNWIRQSPSRGLEWLGIIYYRSKWYNDYAVSVKSRITINPDTSKNQFSLQLNSVTPEDTAVYYCARSSYSGGFDYWGQGTLVTVSS VL: DIVLTQPPSVSGAPGQRVTISCSGSSSNIGSYYVSWYQQLPGTAPKLLIYYNTKRPSGVPDRFSGSKSGTSASLAITGLQAEDEADYYCQSWDKLGKGYVFGGGTKLTVLG	-14.7%	-14.7%	2.08%	-20.6%	-0.1%
NOV0672-SMCC-DM1 (antibody, human IgG1, lambda, V domains shown, SMCC-DM1 on primary amines, sites not stated) VH: QVQLLESGGGLVQPGGSLRLSCAASGFTFNTYGIHWVRQAPGKGLEWVSYIHYSGSSTYYADSVKGRFTISRDNSKNTLYLQMNSLRAEDTAVYYCARHAYGYMDFWGQGTLVTVSS VL: DIALTQPASVSGSPGQSITISCTGTSSDVGAYNYVSWYQQHPGKAPKLMIYGVSKRPSGVSNRFSGSKSGNTASLTISGLQAEDEADYYCQSYDHLLHVVFGGGTKLTVLG	-23%	-12.3%	-6.14%	-16.2%	-10.9%
NOV0674-SMCC-DM1 (antibody, human IgG1, lambda, V domains shown, SMCC-DM1 on primary amines, sites not stated) VH: QVQLLESGGGLVQPGGSLRLSCAASGFTFSSYAMTWVRQAPGKGLEWVSGISGGGSNTYYADSVKGRFTISRDNSKNTLYLQMNSLRAEDTAVYYCARGGGQYFDYWGQGTLVTVSS VL: DIVLTQPPSVSGAPGQRVTISCSGSSSNIGYNYVSWYQQLPGTAPKLLIYRDNQRPSGVPDRFSGSKSGTSASLAITGLQAEDEADYYCAAWTSGSIGWVFGGGTKLTVLG	-11.9%	-6.82%	3.9%	-10.3%	-1.42%
